# Experimental data as given in article PMC11417369, “DNA sequence and chromatin differentiate sequence-specific transcription factor binding in the human malaria parasite Plasmodium falciparum”.
# T1: AP2-LT D1 (Plasmodium falciparum, UniProt Q8IAM1 2520-2577)
# T1 sequence: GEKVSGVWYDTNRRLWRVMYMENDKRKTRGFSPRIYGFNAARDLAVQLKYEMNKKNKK
# B1: CACACA_site8035 (dsDNA)
# DNA 1: TAAGTATACACATACACACACACACTAATAAAAAAA
# DNA 2: TTTTTTTATTAGTGTGTGTGTGTATGTGTATACTTA
# B2: CACACA_site7828 (dsDNA)
# DNA 1: TATATAAATAGACACACACACACCTTATAATTACTA
# DNA 2: TAGTAATTATAAGGTGTGTGTGTGTCTATTTATATA
# B3: CACACA_site7866 (dsDNA)
# DNA 1: GGATATAACAGACACACACACACATATAAATATATT
# DNA 2: AATATATTTATATGTGTGTGTGTGTCTGTTATATCC
# B4: CACACA_site5033 (dsDNA)
# DNA 1: TCATAGTATGGACACACACACACACCCATATATATA
# DNA 2: TATATATATGGGTGTGTGTGTGTGTCCATACTATGA
# B5: CACACA_site9270 (dsDNA)
# DNA 1: AAAAAAAAAAAATATACACACACACCGACACATAAA
# DNA 2: TTTATGTGTCGGTGTGTGTGTATATTTTTTTTTTTT
# B6: CACACA_site1992 (dsDNA)
# DNA 1: TGGGTAAACAAACACACACACATATATATATATATA
# DNA 2: TATATATATATATATGTGTGTGTGTTTGTTTACCCA
# B7: CACACA_site481 (dsDNA)
# DNA 1: ATAATCCTGAAACACACACACACACCCATAAATAAA
# DNA 2: TTTATTTATGGGTGTGTGTGTGTGTTTCAGGATTAT
# B8: CACACA_site8248 (dsDNA)
# DNA 1: TGAACTCACGAGCACACACACACATATATATATATA
# DNA 2: TATATATATATATGTGTGTGTGTGCTCGTGAGTTCA
# B9: CACACA_site2920 (dsDNA)
# DNA 1: CATACATACAGACACACACACATATATATATATATA
# DNA 2: TATATATATATATATGTGTGTGTGTCTGTATGTATG
# B10: CACACA_site4351 (dsDNA)
# DNA 1: CCCACAGACGGACACACACACATATATATATATATA
# DNA 2: TATATATATATATATGTGTGTGTGTCCGTCTGTGGG
# B11: CACACA_site363 (dsDNA)
# DNA 1: CACACCCACAGACACACACACACATATATATATATA
# DNA 2: TATATATATATATGTGTGTGTGTGTCTGTGGGTGTG
# B12: CACACA_site2248 (dsDNA)
# DNA 1: TATACATAGAAACACACACACATATATATATATATA
# DNA 2: TATATATATATATATGTGTGTGTGTTTCTATGTATA
# B13: CACACA_site773 (dsDNA)
# DNA 1: TATATATAGAAACACACACACATATATATATATATA
# DNA 2: TATATATATATATATGTGTGTGTGTTTCTATATATA
# B14: CACACA_site6255 (dsDNA)
# DNA 1: TTTATTAATAGACACACACACACACGCAAAATAAAA
# DNA 2: TTTTATTTTGCGTGTGTGTGTGTGTCTATTAATAAA
# B15: CACACA_site8097 (dsDNA)
# DNA 1: CATACACCCCAACACACACACACACCCATATATAAT
# DNA 2: ATTATATATGGGTGTGTGTGTGTGTTGGGGTGTATG
# B16: CACACA_site268 (dsDNA)
# DNA 1: AATATAAACCCAAACACACACATATATATATATATA
# DNA 2: TATATATATATATATGTGTGTGTTTGGGTTTATATT
# B17: CACACA_site4314 (dsDNA)
# DNA 1: AATAAATAAAGAAGTACACACATATATATATATATA
# DNA 2: TATATATATATATATGTGTGTACTTCTTTATTTATT
# B18: CACACA_site6448 (dsDNA)
# DNA 1: AAAATACACGCATACACACACACACGCGCACATATA
# DNA 2: TATATGTGCGCGTGTGTGTGTGTATGCGTGTATTTT
# B19: CACACA_site517 (dsDNA)
# DNA 1: AATTAACAAAAACACACACACACACCCACAAAAAAA
# DNA 2: TTTTTTTGTGGGTGTGTGTGTGTGTTTTTGTTAATT
# B20: CACACA_site5873 (dsDNA)
# DNA 1: AATAACCACGGACACACACACATATATATATATATA
# DNA 2: TATATATATATATATGTGTGTGTGTCCGTGGTTATT
# B21: CACACA_site4437 (dsDNA)
# DNA 1: CATATACACGAACACACACACATATATATATATATA
# DNA 2: TATATATATATATATGTGTGTGTGTTCGTGTATATG
# B22: CACACA_site5809 (dsDNA)
# DNA 1: AACACCCATGGACACACACACATATATATATATATA
# DNA 2: TATATATATATATATGTGTGTGTGTCCATGGGTGTT
# B23: CACACA_site8452 (dsDNA)
# DNA 1: AAAAAAAAAAAACATACACACACATATATATATATA
# DNA 2: TATATATATATATGTGTGTGTATGTTTTTTTTTTTT
# B24: CACACA_site6447 (dsDNA)
# DNA 1: AATACACGCAGACACACACACACACGCACATATATA
# DNA 2: TATATATGTGCGTGTGTGTGTGTGTCTGCGTGTATT
# B25: CACACA_site7106 (dsDNA)
# DNA 1: AAAAAACACGCGCACACACACACACGCGCCCACATA
# DNA 2: TATGTGGGCGCGTGTGTGTGTGTGCGCGTGTTTTTT
# B26: CACACA_site1020 (dsDNA)
# DNA 1: AACAGACGAAGACACACACACATATATATATATATA
# DNA 2: TATATATATATATATGTGTGTGTGTCTTCGTCTGTT
# B27: CACACA_site5977 (dsDNA)
# DNA 1: AATGACAACCTTGTCACACATATATATATATATATA
# DNA 2: TATATATATATATATATGTGTGACAAGGTTGTCATT
# B28: CACACA_site8234 (dsDNA)
# DNA 1: CTATTTCATAAACACACACACACAAACAAACATATA
# DNA 2: TATATGTTTGTTTGTGTGTGTGTGTTTATGAAATAG
# B29: CACACA_site706 (dsDNA)
# DNA 1: AAAAAAAAAAAACACACACACACAAATACATACACA
# DNA 2: TGTGTATGTATTTGTGTGTGTGTGTTTTTTTTTTTT
# B30: CACACA_site4354 (dsDNA)
# DNA 1: CACAGACACGGACACACACACACACCCATATATATA
# DNA 2: TATATATATGGGTGTGTGTGTGTGTCCGTGTCTGTG
# B31: CACACA_site905 (dsDNA)
# DNA 1: AAAAAGGAGAAACACACACACACACCCATATATATA
# DNA 2: TATATATATGGGTGTGTGTGTGTGTTTCTCCTTTTT
# B32: CACACA_site5250 (dsDNA)
# DNA 1: CGCGCCCAGAAACACACACACACACCGATATATATA
# DNA 2: TATATATATCGGTGTGTGTGTGTGTTTCTGGGCGCG
# Biological target: T1, AP2-LT D1
# Assay: gcPBM; about 25 ug protein; PBS, 1% milk, 0.2 mg/ml BSA, salmon testes DNA, 0.03% Triton X-100
# Settings: tags: N-terminal GST (pGEX-4T-1), kept; label: surface-attached array probe
row,Binder,binding signal
1,B1,"10.2 ln median PBM intensity, better of two orientations"
2,B2,"10.2 ln median PBM intensity, better of two orientations"
3,B3,"10.4 ln median PBM intensity, better of two orientations"
4,B4,"10.2 ln median PBM intensity, better of two orientations"
5,B5,"10.2 ln median PBM intensity, better of two orientations"
6,B6,"10.5 ln median PBM intensity, better of two orientations"
7,B7,"10.4 ln median PBM intensity, better of two orientations"
8,B8,"10.5 ln median PBM intensity, better of two orientations"
9,B9,"10.4 ln median PBM intensity, better of two orientations"
10,B10,"10.2 ln median PBM intensity, better of two orientations"
11,B11,"10.3 ln median PBM intensity, better of two orientations"
12,B12,"10.2 ln median PBM intensity, better of two orientations"
13,B13,"10.3 ln median PBM intensity, better of two orientations"
14,B14,"10.4 ln median PBM intensity, better of two orientations"
15,B15,"10.6 ln median PBM intensity, better of two orientations"
16,B16,"10.3 ln median PBM intensity, better of two orientations"

row,Binder,binding signal
1,B17,"10.3 ln median PBM intensity, better of two orientations"
2,B18,"10.2 ln median PBM intensity, better of two orientations"
3,B19,"10.3 ln median PBM intensity, better of two orientations"
4,B20,"10.5 ln median PBM intensity, better of two orientations"
5,B21,"10.4 ln median PBM intensity, better of two orientations"
6,B22,"10.5 ln median PBM intensity, better of two orientations"
7,B23,"10.3 ln median PBM intensity, better of two orientations"
8,B24,"10.3 ln median PBM intensity, better of two orientations"
9,B25,"10.5 ln median PBM intensity, better of two orientations"
10,B26,"10.4 ln median PBM intensity, better of two orientations"
11,B27,"10.2 ln median PBM intensity, better of two orientations"
12,B28,"10.2 ln median PBM intensity, better of two orientations"
13,B29,"10.4 ln median PBM intensity, better of two orientations"
14,B30,"10.3 ln median PBM intensity, better of two orientations"
15,B31,"10.2 ln median PBM intensity, better of two orientations"
16,B32,"10.2 ln median PBM intensity, better of two orientations"
